Reference: the supplement of paper PMC7125110
± gives the standard error. For some of these results: Fewer inactive variants are shown than the library holds.

B1: glmS ribozyme (parent)
chain: AUAAAAGCGCCAGAACUACAGAAAUGUAGUUGACGAGGAGGAGGUUUAUCGAAUUUUCGGCGGAUGCCUCCAAA

Tests used:
Conditions in all cases: with glucosamine-6-phosphate
[1] = variants of: B1; assay: kcat; higher = faster cleavage; RNA array
Outline: (§1)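 In situ transcription by E. coli RNA polymerase produced barcoded ribozyme variants on sequenced MiSeq chips, and a hybridised Cy3 probe tracked them at 37 °C. Glucosamine-6-phosphate was flowed in at 40 μM to 10 mM in HEPES/KCl/Mg(OAc)2 buffer. kcat and KM were taken from weighted Michaelis–Menten fits of kobs values from exponential decay fits.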

[2] = variants of: B1; assay: self-cleavage kobs at 40 uM GlcN6P; higher = faster cleavage; RNA array
Outline: as §1

[3] = variants of: B1; assay: self-cleavage kobs at 160 uM GlcN6P; higher = faster cleavage; RNA array
Outline: as §1

[4] = variants of: B1; assay: self-cleavage kobs at 640 uM GlcN6P; higher = faster cleavage; RNA array
Outline: as §1

[5] = variants of: B1; assay: self-cleavage kobs at 2500 uM GlcN6P; higher = faster cleavage; RNA array
Outline: as §1

[6] = variants of: B1; assay: self-cleavage kobs at 10000 uM GlcN6P; higher = faster cleavage; RNA array
Outline: as §1

[7] = variants of: B1; assay: KM; higher = weaker cofactor use; RNA array
Outline: as §1

Variant | kcat [1] | self-cleavage kobs at 40 uM GlcN6P [2] | self-cleavage kobs at 160 uM GlcN6P [3] | self-cleavage kobs at 640 uM GlcN6P [4] | self-cleavage kobs at 2500 uM GlcN6P [5] | self-cleavage kobs at 10000 uM GlcN6P [6] | KM [7]
U45A C71A | 0.00337 ± 0.0013 s⁻¹ | 0.00019 ± 3.7e-05 s⁻¹ | 0.000518 ± 0.00016 s⁻¹ | 0.000907 ± 0.00022 s⁻¹ | 0.00202 ± 0.00085 s⁻¹ | 0.00396 ± 0.00073 s⁻¹ | –
A42U A52G | 1.76e-05 ± 2.4e-06 s⁻¹ | – | < 1e-05 s⁻¹ | – | – | 1.62e-05 ± 7.9e-06 s⁻¹ | –
A48G U56G | 7.92e-05 ± 1.9e-06 s⁻¹ | < 1e-05 s⁻¹ | – | – | 6.4e-05 ± 1.3e-05 s⁻¹ | 7.35e-05 ± 8.9e-06 s⁻¹ | 696 ± 110 µM
C16A G41A | 4e-05 ± 4.5e-07 s⁻¹ | – | – | – | – | 3.7e-05 ± 1.1e-05 s⁻¹ | 806 ± 51 µM
G51U G60C C70G | 1.22e-05 ± 2.5e-06 s⁻¹ | < 1e-05 s⁻¹ | – | – | – | – | –
C68G U69A | 1.57e-05 ± 5.7e-06 s⁻¹ | – | – | – | – | – | –
C16G G32A C68U | 0.000119 ± 1.4e-05 s⁻¹ | – | – | 0.000129 ± 3.9e-05 s⁻¹ | 9.95e-05 ± 3.8e-05 s⁻¹ | 0.000115 ± 1.8e-05 s⁻¹ | –
A52G C70U | 0.00261 ± 0.00024 s⁻¹ | 2.96e-05 ± 5.4e-06 s⁻¹ | 0.000108 ± 3.7e-05 s⁻¹ | 0.00037 ± 6.1e-05 s⁻¹ | 0.000878 ± 0.00015 s⁻¹ | 0.00194 ± 0.00018 s⁻¹ | 3870 ± 600 µM
A39U G66U | 0.0039 ± 0.0011 s⁻¹ | 0.000107 ± 1e-05 s⁻¹ | 0.000292 ± 5.6e-05 s⁻¹ | 0.000735 ± 8.7e-05 s⁻¹ | 0.0018 ± 0.00025 s⁻¹ | 0.00372 ± 0.00032 s⁻¹ | 2010 ± 860 µM
A12C U30A | 0.00751 ± 0.0021 s⁻¹ | 5.95e-05 ± 1.5e-05 s⁻¹ | 0.000144 ± 3e-05 s⁻¹ | 0.000745 ± 0.0002 s⁻¹ | 0.0017 ± 0.00056 s⁻¹ | 0.00447 ± 0.00074 s⁻¹ | 7100 ± 2600 µM
U56C C67U | 3.78e-05 ± 8.1e-07 s⁻¹ | < 1e-05 s⁻¹ | < 1e-05 s⁻¹ | – | – | – | 7870 ± 360 µM
A14G U45A U49G | 0.00282 ± 0.001 s⁻¹ | 8.34e-05 ± 1.7e-05 s⁻¹ | 0.000143 ± 3.9e-05 s⁻¹ | 0.000745 ± 0.00011 s⁻¹ | 0.00136 ± 0.00063 s⁻¹ | 0.00233 ± 0.00051 s⁻¹ | 2040 ± 970 µM
A12G C58G | 0.000117 ± 1.9e-05 s⁻¹ | – | – | – | 7.99e-05 ± 1.2e-05 s⁻¹ | 9.48e-05 ± 9.8e-06 s⁻¹ | –
C11G C16U | < 1e-05 s⁻¹ | – | < 1e-05 s⁻¹ | – | – | – | –
A12G C16U C34G C67G | 1.6e-05 ± 3.8e-06 s⁻¹ | – | – | – | – | – | –
U46C U57C | 9.95e-05 ± 2e-05 s⁻¹ | < 1e-05 s⁻¹ | – | – | 4.88e-05 ± 2e-05 s⁻¹ | 7.09e-05 ± 1.8e-05 s⁻¹ | –
U45A U46G | 0.0594 ± 0.012 s⁻¹ | 0.00256 ± 0.00026 s⁻¹ | 0.00762 ± 0.0012 s⁻¹ | 0.0264 ± 0.006 s⁻¹ | 0.0366 ± 0.012 s⁻¹ | 0.0669 ± 0.021 s⁻¹ | 939 ± 230 µM
